In patent US20250304666A1 (ALCHEMAB THERAPEUTICS, published 2025):

Key:
reduced CFHR1 = biological target: T1, reduced CFHR1 (UniProt Q03591 19-330, limits assumed); test: ELISA, reduced antigen
T1 sequence (looked up): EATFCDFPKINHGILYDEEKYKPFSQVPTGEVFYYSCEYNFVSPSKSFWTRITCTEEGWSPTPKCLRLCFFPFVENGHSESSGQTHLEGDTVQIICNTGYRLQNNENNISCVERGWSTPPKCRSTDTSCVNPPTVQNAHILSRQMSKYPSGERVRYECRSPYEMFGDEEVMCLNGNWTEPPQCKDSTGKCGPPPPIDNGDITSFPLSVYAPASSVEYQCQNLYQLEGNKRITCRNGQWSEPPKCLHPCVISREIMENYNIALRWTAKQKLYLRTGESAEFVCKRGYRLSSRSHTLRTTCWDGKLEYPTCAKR

reduced CFHR2 = biological target: T2, reduced CFHR2 (UniProt P36980 19-270, limits assumed); test: ELISA, reduced antigen
T2 sequence (looked up): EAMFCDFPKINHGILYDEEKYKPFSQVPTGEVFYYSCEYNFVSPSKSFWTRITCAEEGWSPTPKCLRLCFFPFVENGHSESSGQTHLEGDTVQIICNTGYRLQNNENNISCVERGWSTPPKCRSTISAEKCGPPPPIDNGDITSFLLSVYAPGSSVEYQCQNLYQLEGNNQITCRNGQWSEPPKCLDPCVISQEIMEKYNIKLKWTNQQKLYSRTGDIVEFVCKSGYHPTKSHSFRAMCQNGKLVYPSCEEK

reduced CFHR3 = biological target: T3, reduced CFHR3 (UniProt Q02985 19-330, limits assumed); test: ELISA, reduced antigen
T3 sequence (looked up): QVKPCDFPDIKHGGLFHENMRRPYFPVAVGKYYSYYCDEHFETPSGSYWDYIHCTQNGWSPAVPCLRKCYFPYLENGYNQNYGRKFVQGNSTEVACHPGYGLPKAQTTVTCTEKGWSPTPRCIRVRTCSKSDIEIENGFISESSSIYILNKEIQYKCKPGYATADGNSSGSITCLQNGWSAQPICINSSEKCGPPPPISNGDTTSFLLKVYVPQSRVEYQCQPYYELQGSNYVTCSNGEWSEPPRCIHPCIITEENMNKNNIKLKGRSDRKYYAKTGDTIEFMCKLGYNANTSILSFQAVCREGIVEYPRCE

reduced CFHR5 [1] = biological target: T4, reduced CFHR5 (UniProt Q9BXR6 19-569, limits assumed); test: ELISA, reduced antigen
T4 sequence (looked up): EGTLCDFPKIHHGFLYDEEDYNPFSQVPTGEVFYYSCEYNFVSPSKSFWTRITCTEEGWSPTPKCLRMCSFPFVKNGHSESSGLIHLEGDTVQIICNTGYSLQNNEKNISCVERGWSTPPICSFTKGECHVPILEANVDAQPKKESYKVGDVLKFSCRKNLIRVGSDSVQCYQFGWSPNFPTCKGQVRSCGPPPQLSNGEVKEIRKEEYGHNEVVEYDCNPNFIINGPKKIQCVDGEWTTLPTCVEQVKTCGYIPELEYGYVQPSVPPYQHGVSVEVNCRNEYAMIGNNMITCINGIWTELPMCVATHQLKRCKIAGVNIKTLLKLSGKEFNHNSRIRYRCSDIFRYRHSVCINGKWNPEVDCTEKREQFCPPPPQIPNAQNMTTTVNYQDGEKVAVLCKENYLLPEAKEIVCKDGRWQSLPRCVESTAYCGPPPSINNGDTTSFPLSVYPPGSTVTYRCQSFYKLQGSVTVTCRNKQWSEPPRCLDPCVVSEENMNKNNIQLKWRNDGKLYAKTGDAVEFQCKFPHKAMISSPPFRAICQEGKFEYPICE

reduced CFH [2] = biological target: T5, reduced CFH (Homo sapiens (Human), UniProt P08603 860-1231, limits assumed); test: ELISA, reduced antigen
T5 construct: also called CFH (reduced)
T5 sequence: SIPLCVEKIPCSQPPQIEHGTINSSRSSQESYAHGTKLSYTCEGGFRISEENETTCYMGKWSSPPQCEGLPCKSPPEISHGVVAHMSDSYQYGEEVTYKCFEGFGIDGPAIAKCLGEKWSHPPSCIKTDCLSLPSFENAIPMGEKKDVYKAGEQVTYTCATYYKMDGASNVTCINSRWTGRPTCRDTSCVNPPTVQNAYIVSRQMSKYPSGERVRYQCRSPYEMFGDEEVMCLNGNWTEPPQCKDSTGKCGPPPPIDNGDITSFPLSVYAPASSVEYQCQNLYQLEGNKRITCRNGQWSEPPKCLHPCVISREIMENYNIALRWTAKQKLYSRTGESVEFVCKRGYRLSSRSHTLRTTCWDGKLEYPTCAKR

non-reduced CFH = biological target: T6, non-reduced CFH; test: ELISA, non-reduced antigen
T6 construct: also called CFH (NON-REDUCED)
T6 chain: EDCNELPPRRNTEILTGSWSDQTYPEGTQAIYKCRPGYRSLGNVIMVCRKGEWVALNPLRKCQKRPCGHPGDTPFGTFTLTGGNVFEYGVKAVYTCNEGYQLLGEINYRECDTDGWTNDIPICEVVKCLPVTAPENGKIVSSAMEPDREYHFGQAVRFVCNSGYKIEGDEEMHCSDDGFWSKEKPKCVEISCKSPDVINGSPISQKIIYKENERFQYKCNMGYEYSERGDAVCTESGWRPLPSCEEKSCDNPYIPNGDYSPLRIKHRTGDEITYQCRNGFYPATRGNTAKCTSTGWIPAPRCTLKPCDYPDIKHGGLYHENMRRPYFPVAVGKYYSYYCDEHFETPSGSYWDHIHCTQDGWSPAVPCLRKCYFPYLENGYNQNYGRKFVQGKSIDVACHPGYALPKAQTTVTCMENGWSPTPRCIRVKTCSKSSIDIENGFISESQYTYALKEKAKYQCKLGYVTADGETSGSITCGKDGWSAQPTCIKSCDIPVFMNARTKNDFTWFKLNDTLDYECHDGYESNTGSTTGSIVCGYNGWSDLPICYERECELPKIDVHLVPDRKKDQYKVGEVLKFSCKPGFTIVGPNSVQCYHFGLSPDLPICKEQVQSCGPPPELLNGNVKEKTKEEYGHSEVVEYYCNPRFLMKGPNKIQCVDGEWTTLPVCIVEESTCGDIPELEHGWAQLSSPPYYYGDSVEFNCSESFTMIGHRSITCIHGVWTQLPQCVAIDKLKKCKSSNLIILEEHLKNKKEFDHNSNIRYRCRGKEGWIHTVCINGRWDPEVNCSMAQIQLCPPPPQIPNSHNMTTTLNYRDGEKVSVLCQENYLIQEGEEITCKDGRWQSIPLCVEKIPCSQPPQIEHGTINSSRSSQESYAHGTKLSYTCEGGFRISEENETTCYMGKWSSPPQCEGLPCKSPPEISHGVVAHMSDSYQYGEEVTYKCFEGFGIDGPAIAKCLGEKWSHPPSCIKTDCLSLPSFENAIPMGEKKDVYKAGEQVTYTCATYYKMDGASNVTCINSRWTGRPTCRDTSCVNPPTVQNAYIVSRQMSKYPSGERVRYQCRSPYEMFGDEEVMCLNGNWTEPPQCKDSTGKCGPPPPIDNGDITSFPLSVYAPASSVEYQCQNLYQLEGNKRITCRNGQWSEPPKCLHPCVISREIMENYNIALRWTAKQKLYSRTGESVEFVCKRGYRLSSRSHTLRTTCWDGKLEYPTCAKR

non-reduced CFHR1 = biological target: T7, non-reduced CFHR1; test: ELISA, non-reduced antigen
T7 construct: also called CFHR1 (NON-REDUCED)
T7 chain: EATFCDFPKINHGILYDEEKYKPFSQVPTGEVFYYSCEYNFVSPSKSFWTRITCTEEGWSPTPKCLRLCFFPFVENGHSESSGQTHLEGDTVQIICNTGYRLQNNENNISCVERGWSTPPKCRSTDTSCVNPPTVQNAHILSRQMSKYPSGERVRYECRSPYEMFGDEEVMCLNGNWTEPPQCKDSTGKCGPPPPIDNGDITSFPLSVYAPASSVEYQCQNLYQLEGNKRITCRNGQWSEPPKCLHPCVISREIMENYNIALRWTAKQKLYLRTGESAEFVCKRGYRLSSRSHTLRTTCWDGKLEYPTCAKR

non-reduced CFHR2 = biological target: T8, non-reduced CFHR2; test: ELISA, non-reduced antigen
T8 construct: also called CFHR2 (NON-REDUCED)
T8 chain: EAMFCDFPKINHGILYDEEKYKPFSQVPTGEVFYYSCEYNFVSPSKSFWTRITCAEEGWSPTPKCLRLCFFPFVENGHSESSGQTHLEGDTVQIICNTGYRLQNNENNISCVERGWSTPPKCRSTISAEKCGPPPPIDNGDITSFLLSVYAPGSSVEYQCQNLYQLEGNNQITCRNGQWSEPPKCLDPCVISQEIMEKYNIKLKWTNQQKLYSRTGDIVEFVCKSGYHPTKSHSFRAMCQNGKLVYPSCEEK

non-reduced CFHR3 = biological target: T9, non-reduced CFHR3; test: ELISA, non-reduced antigen
T9 construct: also called CFHR3 (NON-REDUCED)
T9 chain: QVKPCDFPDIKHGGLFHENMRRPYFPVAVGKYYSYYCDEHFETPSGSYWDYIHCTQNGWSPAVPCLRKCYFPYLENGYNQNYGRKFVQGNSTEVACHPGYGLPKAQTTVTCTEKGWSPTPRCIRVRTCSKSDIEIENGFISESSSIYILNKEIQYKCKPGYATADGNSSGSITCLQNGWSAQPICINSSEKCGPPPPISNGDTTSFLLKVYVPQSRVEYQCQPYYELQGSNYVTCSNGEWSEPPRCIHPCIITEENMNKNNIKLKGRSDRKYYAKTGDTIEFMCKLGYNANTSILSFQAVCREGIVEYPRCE

non-reduced CFHR5 = biological target: T10, non-reduced CFHR5; test: ELISA, non-reduced antigen
T10 construct: also called CFHR5 (NON-REDUCED)
T10 chain: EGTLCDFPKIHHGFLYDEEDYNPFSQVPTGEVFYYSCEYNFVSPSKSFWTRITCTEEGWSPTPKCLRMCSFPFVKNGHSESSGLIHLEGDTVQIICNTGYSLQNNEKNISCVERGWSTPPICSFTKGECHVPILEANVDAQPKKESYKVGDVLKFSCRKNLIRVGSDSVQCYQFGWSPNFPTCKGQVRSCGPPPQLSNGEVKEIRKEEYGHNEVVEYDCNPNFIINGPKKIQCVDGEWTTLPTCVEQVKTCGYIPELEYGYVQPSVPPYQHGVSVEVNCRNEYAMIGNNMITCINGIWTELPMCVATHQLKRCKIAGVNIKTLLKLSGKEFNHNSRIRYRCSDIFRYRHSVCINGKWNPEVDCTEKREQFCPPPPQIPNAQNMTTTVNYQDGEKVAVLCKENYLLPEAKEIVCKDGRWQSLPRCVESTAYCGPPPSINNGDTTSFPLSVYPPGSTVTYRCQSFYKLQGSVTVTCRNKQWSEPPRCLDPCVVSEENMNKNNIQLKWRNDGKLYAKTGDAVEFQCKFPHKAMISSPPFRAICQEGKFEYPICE

reduced CFH [3] = biological target: T5, reduced CFH; test: ELISA on reduced CFH after heating the mAb (70 C, 1 h, as Figure 16)
reduced CFHR5 [4] = biological target: T4, reduced CFHR5; test: phage ELISA on reduced CFHR5 [B]

Binder	fold change vs isotype at 1 ug/ml (reduced CFHR1) [fold]	fold change vs isotype at 1 ug/ml (reduced CFHR2) [fold]	fold change vs isotype at 1 ug/ml (reduced CFHR3) [fold]	fold change vs isotype at 1 ug/ml (reduced CFHR5 [1]) [fold]	fold change vs isotype at 1 ug/ml (reduced CFH [2]) [fold]	fold change vs isotype at 1 ug/ml (non-reduced CFH) [fold]	fold change vs isotype at 1 ug/ml (non-reduced CFHR1) [fold]	fold change vs isotype at 1 ug/ml (non-reduced CFHR2) [fold]	fold change vs isotype at 1 ug/ml (non-reduced CFHR3) [fold]	fold change vs isotype at 1 ug/ml (non-reduced CFHR5) [fold]	Harsh Heat challenge ELISA value (reduced CFH [3])	binding result (reduced CFHR5 [4])
ATL_0004894 (antibody, human IgG1, kappa, V domains shown, germlined ATL4717, IgG1; also called ATL4894; 4894 IgG) VH: QVQLVESGGGVVQPGRSLRLSCAASGFTFSIYGMHWVRQAPGKGLEWVAVMSFDGKTKYYADSVKGRFTISRDNSKNTLYLQMNSLRAEDTAVYYCAKGGATAAVFDSWGQGTLVTVSS VL: not shown	24.4	10.3	1	1	18.4	9.8	16.6	7.7	1	0.9	0.58	–
4894 phage (scFv, also called phage displaying the ATL4894 scFv) scFv displayed on phage: QVQLVESGGGVVQPGRSLRLSCAASGFTFSIYGMHWVRQAPGKGLEWVAVMSFDGKTKYYADSVKGRFTISRDNSKNTLYLQMNSLRAEDTAVYYCAKGGATAAVFDSWGQGTLVTVSGGGGSGGGGSGGGGSDIVMTQSPDSLAVSLGERATINCKSSQSLLYRSNNKNYLAWYQQKPGQPPKLLIYWASTRESGVPDRFSGSGSGTDFTLTISSLQAEDVAVYYCQQYYNPPWTFGQGTKVEIK	–	–	–	–	–	–	–	–	–	–	–	no binding
